Assay results from paper PMC11931385, “Structural and functional analysis of cancer-associated missense variants in the retinoblastoma protein pocket domain” (The Journal of Biological Chemistry, 2025).
No end group written: not given here. TMR = tetramethyl rhodamine dye

Columns and labels:
Test in all cases: fluorescence polarisation; 25 °C; unlabeled Rb^P titrated against 1.5 nM TMR-E2F1^TD or 7.5 nM TMR-E7^LxCxE; 25 mM Tris pH 8.0, 200 mM NaCl, 1 mM DTT, 0.1% Tween-20; 2 min incubation; quadratic fit; apparent Kd for the variants, Kd for WT
Details in all cases: both partners purified
[1] = molecular target: T1, Rb^P R741H (human, UniProt P06400 380-788, R741H)
T1 construct: also called variant 69
T1 sequence (looked up): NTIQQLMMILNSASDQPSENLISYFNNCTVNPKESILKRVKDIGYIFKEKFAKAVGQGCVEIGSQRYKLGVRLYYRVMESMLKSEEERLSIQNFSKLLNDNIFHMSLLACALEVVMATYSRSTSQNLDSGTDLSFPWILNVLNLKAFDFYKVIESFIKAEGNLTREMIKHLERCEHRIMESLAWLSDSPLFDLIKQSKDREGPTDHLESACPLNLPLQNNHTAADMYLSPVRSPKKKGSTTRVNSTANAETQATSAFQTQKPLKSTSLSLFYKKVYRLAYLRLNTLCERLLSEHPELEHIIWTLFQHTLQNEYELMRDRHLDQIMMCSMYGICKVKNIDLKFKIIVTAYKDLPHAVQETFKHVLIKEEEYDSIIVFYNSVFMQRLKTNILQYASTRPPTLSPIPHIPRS

[2] = molecular target: T2, Rb^P M546I (human, UniProt P06400 380-788, M546I)
T2 construct: also called variant 25
T2 sequence (looked up): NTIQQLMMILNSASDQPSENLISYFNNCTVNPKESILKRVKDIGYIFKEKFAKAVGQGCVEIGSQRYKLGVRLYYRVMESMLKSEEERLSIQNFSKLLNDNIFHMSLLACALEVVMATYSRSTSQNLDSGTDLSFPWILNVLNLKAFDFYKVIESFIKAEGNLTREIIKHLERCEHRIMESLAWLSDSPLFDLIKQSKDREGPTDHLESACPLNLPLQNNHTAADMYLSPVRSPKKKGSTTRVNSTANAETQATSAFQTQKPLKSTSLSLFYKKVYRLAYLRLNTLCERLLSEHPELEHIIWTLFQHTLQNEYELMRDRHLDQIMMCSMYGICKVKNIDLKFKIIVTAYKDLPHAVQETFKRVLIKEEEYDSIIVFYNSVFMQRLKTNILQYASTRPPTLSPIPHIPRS

[3] = molecular target: T3, Rb^P R656W (human, UniProt P06400 380-788, R656W)
T3 construct: also called variant 49
T3 sequence (looked up): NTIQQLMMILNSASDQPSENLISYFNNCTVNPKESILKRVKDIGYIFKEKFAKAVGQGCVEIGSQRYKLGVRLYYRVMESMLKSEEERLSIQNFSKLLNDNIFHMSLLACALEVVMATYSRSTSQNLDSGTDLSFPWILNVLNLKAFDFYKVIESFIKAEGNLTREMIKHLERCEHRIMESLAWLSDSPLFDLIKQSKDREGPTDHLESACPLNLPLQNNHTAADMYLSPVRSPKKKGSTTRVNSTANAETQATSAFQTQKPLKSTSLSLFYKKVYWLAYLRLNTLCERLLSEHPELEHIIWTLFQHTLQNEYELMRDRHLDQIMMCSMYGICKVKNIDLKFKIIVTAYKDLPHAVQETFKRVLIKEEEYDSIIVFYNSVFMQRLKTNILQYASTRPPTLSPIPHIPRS

[4] = molecular target: T4, Rb^P M704V (human, UniProt P06400 380-788, M704V)
T4 construct: also called variant 66
T4 sequence (looked up): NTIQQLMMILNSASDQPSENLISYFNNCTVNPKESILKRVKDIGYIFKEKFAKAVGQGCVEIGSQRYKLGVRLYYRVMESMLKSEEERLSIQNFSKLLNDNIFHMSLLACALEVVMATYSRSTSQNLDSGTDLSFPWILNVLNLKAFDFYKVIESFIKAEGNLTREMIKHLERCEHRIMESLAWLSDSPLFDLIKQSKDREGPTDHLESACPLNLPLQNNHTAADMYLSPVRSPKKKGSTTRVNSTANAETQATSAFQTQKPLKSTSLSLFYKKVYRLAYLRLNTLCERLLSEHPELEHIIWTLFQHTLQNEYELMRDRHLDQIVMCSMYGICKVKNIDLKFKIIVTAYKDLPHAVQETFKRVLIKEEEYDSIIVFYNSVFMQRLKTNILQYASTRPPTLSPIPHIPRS

[5] = molecular target: T5, Rb^P I703F (human, UniProt P06400 380-788, I703F)
T5 construct: also called variant 64
T5 sequence (looked up): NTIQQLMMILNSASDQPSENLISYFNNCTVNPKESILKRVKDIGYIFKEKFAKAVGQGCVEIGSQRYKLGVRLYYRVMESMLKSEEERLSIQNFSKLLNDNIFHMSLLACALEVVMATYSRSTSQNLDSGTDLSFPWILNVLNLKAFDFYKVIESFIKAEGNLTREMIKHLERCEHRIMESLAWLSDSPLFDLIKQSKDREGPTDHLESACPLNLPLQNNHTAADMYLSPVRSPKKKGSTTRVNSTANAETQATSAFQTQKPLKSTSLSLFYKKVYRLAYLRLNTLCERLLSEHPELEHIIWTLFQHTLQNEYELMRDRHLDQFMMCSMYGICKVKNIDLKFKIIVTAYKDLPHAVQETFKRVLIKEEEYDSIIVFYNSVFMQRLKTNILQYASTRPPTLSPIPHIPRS

B1: TMR-E2F1^TD, peptide of the E2F1 transactivation domain (peptide)
peptide: {TMR}-GEGIRDLFDCDFGDLTPLD
notes: also called E2F^TD; source: synthetic peptide, bought: GenScript
Kd [1]: 21 nM
Kd [2]: 13 nM
Kd [3]: 39 nM
Kd [4]: 41 nM
Kd [5]: 63 nM

B2: TMR-E7^LxCxE, LxCxE peptide of the E7 oncoprotein from HPV (peptide)
peptide: DLYCYEQLN
modifications: also: TMR label, position not given here
notes: source: synthetic peptide, bought: GenScript
Kd [1]: 18 nM
Kd [2]: 7 nM
Kd [3]: 8 nM
Kd [4]: 18 nM
Kd [5]: 16 nM
